Data published in publication PMC10715038 (Microbiology Spectrum, 2023).

Molecular target: T1, SARS-CoV-2 WHU01 Spike RBD, monomeric (SARS-CoV-2, UniProt P0DTC2)
T1 construct: not shown: Fc (human IgG1), C-terminal, cleaved
Assay: SPR
Settings: both partners purified

B1: Dog ACE2-huFc (soluble dog ACE2 ectodomain, human IgG1 Fc fusion) (Fc fusion)
chain: QSTEDLVKTFLEKFNYEAEELSYQSSLASWNYNINITDENVQKMNNAGAKWSAFYEEQSKLAKTYPLEEIQDSTVKRQLRALQHSGSSVLSADKNQRLNTILNSMSTIYSTGKACNPSNPQECLLLEPGLDDIMENSKDYNERLWAWEGWRSEVGKQLRPLYEEYVALKNEMARANNYEDYGDYWRGDYEEEWENGYNYSRNQLIDDVEHTFTQIMPLYQHLHAYVRTKLMDTYPSYISPTGCLPAHLLGDMWGRFWTNLYPLTVPFGQKPNIDVTNAMVNQSWDARKIFKEAEKFFVSVGLPNMTQEFWENSMLTEPSDSRKVVCHPTAWDLGKGDFRIKMCTKVTMDDFLTAHHEMGHIQYDMAYAAQPFLLRNGANEGFHEAVGEIMSLSAATPNHLKNIGLLPPSFFEDSETEINFLLKQALTIVGTLPFTYMLEKWRWMVFKGEIPKDQWMKTWWEMKRNIVGVVEPVPHDETYCDPASLFHVANDYSFIRYYTRTIYQFQFQEALCQIAKHEGPLHKCDISNSSEAGQKLLEMLKLGKSKPWTYALEIVVGAKNMDVRPLLNYFEPLFTWLKEQNRNSFVGWNTDWSPYADQSIKVRISLKSALGEKAYEWNNNEMYLFRSSIAYAMRQYFSEVKNQTIPFVEDNVWVSDLKPRISFNFFVTSPGNVSDIIPRTEVEEAIRMYRSRINDVFRLDDNSLEFLGIQPTLGPPYEPPVTI
notes: source: 293F cells, transfected, purified from supernatant (Protein A Sepharose)
Kd: 275 nM | koff: 0.0176 s⁻¹ | kon: 60000 M⁻¹ s⁻¹
